Assay results as given in patent publication US20160194407A1 (AstraZeneca / MedImmune, published 2016).
Where a chain is given by its changes, count along the chain named. Numbers in names are those of the source.

T1: human CD73 on cells (human, UniProt P21589 27-549)
T1 sequence: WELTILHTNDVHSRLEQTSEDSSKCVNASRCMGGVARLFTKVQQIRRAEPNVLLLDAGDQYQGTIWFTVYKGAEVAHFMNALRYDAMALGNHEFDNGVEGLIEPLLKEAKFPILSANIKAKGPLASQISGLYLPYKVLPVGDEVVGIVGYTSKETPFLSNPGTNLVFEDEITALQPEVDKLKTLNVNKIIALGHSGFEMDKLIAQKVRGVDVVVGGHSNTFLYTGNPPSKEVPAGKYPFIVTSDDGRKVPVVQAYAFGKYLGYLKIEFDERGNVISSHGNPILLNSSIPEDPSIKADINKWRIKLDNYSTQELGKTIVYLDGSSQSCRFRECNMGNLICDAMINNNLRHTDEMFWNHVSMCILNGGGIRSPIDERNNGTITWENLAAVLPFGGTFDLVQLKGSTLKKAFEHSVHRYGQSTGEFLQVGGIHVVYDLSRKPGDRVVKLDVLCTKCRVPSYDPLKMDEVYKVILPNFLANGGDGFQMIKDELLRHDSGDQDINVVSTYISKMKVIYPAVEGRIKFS

T2: recombinant human CD73 protein (form not stated) (human, UniProt P21589 27-549)
T2 construct: also called huCD73; rCD73
T2 sequence: T1 sequence

B1: CD730008 antibody (antibody, IgG1, V domains shown)
VH: EVQLLETGGGLVQPGGSLRLSCAASGFTFSSYAMSWVRQAPGKGLEWVSAISGSGGSTYYADSVKGRFTISRDNSKNTLYLQMNSLRAEDTAVYYCARGNYGNLDHWGKGTLVTVSS
VL: QSVLTQPPSVSVSPGQTASITCSGDKVGDKYASWYQQKPGQSPVLVIYQDRKRPSGIPERFSGSNSGNTATLTISGTQPMDEADYYCQAWDSSHWVFGGGTKLTVL
B2: CD730002 antibody (antibody, IgG1, V domains shown)
VH: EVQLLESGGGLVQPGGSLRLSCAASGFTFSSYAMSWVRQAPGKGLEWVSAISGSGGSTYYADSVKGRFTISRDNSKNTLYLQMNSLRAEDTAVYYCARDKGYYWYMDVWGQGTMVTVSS
VL: B1 VL with S19T, Q49E, R51T, G56R, P79A, M80L, Y86F, S92T, H94F
notes: IgG1; tested as IgG1-TM; also called clone 2
B3: CD730004 antibody (antibody, IgG1, V domains shown)
VH: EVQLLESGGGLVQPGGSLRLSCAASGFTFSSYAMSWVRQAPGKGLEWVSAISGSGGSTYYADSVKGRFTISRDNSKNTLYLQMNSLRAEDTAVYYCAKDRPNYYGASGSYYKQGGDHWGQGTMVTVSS
VL: NFMLTQPHSVSESPGQTVTISCTRSSGSIASKYVQWYQKRPGSSPTTVIYEDTQRPSGVPDRFSGSIDISSNSASLTISGLRTEDEADYYCQSYDSTNWVFGGGTKVTVL
notes: IgG1
B4: CD730010 antibody (antibody, IgG1, V domains shown)
VH: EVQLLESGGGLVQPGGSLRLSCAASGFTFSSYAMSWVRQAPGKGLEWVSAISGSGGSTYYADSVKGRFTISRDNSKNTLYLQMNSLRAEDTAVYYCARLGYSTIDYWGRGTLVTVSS
VL: LPVLTQPPSVSGTPGQRVTISCSGSLSNIGRNPVNWYKQVPGTAPKLLIYLNNQRPSGVPDRFSGSKSGTSASLAISGLQSEDEADYYCATWDDSLNGWLFGGGTKLTVL
notes: IgG1; tested as IgG1-TM (L234F, L235E, P331S); also called clone 10
B5: CD730011 antibody (antibody, IgG1, V domains shown)
VH: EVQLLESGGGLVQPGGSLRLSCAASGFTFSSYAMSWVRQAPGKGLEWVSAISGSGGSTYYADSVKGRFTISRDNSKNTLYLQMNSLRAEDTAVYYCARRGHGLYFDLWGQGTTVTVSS
VL: NFMLTQPHSVSESPGKTVTISCTRSSGSIASKYVQWYQQRPGSSPMAVIYKDNQRSSGVPDRFSGSIDSSSNSASLTISGLKPEDEADYYCQSYDASNYYVFGTGTKVTVL
notes: IgG1; also called CD7300011
B6: CD730047 antibody (antibody, IgG1, V domains shown)
VH: EVQLVQSGGGVVQPGRSLRLSCAASGFTFSSYGMHWVRQAPGKGLEWVAVISYDGSIKYYADSVKGRFAISRDNAKNTLYLQMNSLRREDTAMYYCASGLTGVAGALGVWGRGTLVTVSS
VL: QSVLTQPPSASGAPGQRVTISCSGSSSNIGSNTVNWYQRLPGAAPQLLIYNNDQRPSGIPDRFSGSKSGTSGSLVISGLQSEDEADYYCAAWDDSLSGNVFGTGTKVTVL
notes: IgG1
B7: CD730042 antibody (antibody, IgG1, V domains shown)
VH: GVQLVQSGGGLVQPGGSLRLSCAASGFTFSSYGMHWVRQAPGKGLEWVAVISYDGSIKYYADSVKGRFTISRDDSKNALYLQMNSLRAEDTAVYYCSTLSGSYGYFDYWGRGTLVTVSS
VL: QSVLTQPASVSGSPGQSITISCAGTSSDVGGYNYVSWYQQHPGKAPKLMIYEGSKRPSGVSNRFSGSKSGNTASLTISGLQAEDEADYYCSSYTTRSTRVFGGGTKLTVL
notes: IgG1
B8: CD730046 antibody (antibody, IgG1, V domains shown)
VH: QVQLVQSGGGVVQPGRSLRLSCAASGFTFSSYGMHWVRQAPGKGLEWVAVISYDGSIKYYADSVKGRFTISRDNSKNSLFLQMNSLRDDDTATYYCARGHLLRIGDIFYYSLDVWGQGTLVTVSS
VL: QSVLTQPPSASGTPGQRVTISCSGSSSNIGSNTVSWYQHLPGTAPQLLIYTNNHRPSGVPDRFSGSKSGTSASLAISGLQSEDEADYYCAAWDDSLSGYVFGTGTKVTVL
notes: IgG1
B9: CD730021 antibody (antibody, IgG1, V domains shown)
VH: QVQLQESGPGLVRPSETLSLTCTVSGGSISSSSYYWAWVRQSPGKGLEWIGNIYYRGSTYYNPSLKSRVTMSVDMSKHQFSLKLSSLNAADTAVYYCASLYSGTYVFDYWGRGTLVTVSS
VL: QSVLTQPPSASGTPGQRVTISCSGSRPNIGGNTVNWYQQLPGAAPKLLIYSNSQRPSGVPDRFSGSKYGTSASLAISGLQSDDEADYYCGTWDDSLNGPVFGRGTKLTVL
notes: IgG1
B10: CD730010 GL10 (antibody, V domains shown)
VH: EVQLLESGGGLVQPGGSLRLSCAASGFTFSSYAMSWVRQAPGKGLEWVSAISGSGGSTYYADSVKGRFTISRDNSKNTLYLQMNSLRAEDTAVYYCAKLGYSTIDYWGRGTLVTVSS
VL: B4 VL
B11: 73combo5 (G10 + GRVE + HPT) (antibody, IgG1, V domains shown)
VH: B1 VH with T7S, M34Y, G55W, S57R, G99L, N100G, N103R, L104V, H106E, K109R
VL: QSVLTQPPSASGTPGQRVTISCSGSLSNIGRNDVNWYQQLPGTAPKLLIYLNNQRLGGVPDRFSGSKSGTSASLAISGLQSEDEADYYCATWDDSHPGWTFGGGTKLTVL
notes: also called clone 10 combo5
B12: CD730002 2C5 (antibody, IgG1, V domains shown)
VH: EVQLLESGGGLVQPGGSLRLSCAASGFTFSSYAMSWVRQAPGKGLEWVSAISGSGGSTYYADSVKRRFTISRDNSKNTLYLQMNSLRAEDTAVYYCARDKGYYWYMDVWGQGTMVTVSS
VL: B1 VL with Q49E, R51T, P54L, P79A, S92T, H94F
notes: IgG1; also called clone 2C5 antibody
B13: 73combo1 (C1 + GRVE + HPT) (antibody, IgG1, V domains shown)
VH: B1 VH with T7S, M34Y, G99L, N100G, N103R, L104V, H106E, K109R
VL: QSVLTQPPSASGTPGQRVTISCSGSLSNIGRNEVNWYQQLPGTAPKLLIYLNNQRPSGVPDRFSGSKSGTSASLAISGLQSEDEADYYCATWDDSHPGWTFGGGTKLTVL
notes: also called clone 10 combo1
B14: G10 (antibody, IgG1, V domains shown)
VH: EVQLLESGGGLVQPGGSLRLSCAASGFTFSSYAYSWVRQAPGKGLEWVSAISGSWGRTYYADSVKGRFTISRDNSKNTLYLQMNSLRAEDTAVYYCARLGYSTIDLWGRGTLVTVSS
VL: B11 VL with H96L, P97K, T100L
notes: also called clone 10 G10
B15: C2 (antibody, IgG1, V domains shown)
VH: B14 VH with A50L, S52W, R57S, L106M
VL: B11 VL with D33P, N52D, Q54L, H96L, P97K, T100L
notes: also called clone 10 C2
B16: C1 (antibody, IgG1, V domains shown)
VH: B14 VH with W55G, R57S, L106K
VL: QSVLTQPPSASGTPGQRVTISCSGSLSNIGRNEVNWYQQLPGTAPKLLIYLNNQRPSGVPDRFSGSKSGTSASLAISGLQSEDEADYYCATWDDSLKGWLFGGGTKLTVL
notes: also called clone 10 C1
B17: 73combo2 (C2 + GRVE + HPT) (antibody, IgG1, V domains shown)
VH: B14 VH with A50L, S52W, R57S, S102G, T103R, I104V, L106E
VL: B11 VL with D33P, N52D, Q54L
notes: also called clone 10 combo2

These binders were tested against T1, human CD73 on cells (assay: cell-based or functional assay).

Row | Binder | 1/EC50, Enzyme Inhibition, MDA-MB-231
1 | B1 | 0.011 nM⁻¹

These binders were tested against cynomolgus CD73 (form not stated) (cynomolgus) (assay: Binding, Cyno; assay not described).

Row | Binder | 1/EC50
2 | B1 | 0.0011 nM⁻¹
3 | B2 | 0.2 nM⁻¹
4 | B3 | 2e-06 nM⁻¹
5 | B4 | 0.0033 nM⁻¹
6 | B5 | 0.0027 nM⁻¹
7 | B6 | 0 nM⁻¹
8 | B7 | 0.0014 nM⁻¹
9 | B8 | 0.01 nM⁻¹
10 | B9 | 0.0012 nM⁻¹

Biological target: T1, human CD73 on cells
Test: cell-based or functional assay
Remark: another data set of the same source

Row | Binder | FabZAP internalization, EC50, MDA-MB-231 | FabZAP internalization, max toxicity, MDA-MB-231
11 | B4 | 0.158 nM | 84%

These binders were tested against T2, recombinant human CD73 protein (form …) (assay: assay and target not stated in Table 11 (taken as human CD73)).

Row | Binder | EC50
12 | B4 | 69 nM
13 | B10 | 205 nM

These binders were tested against T3, cynomolgus CD73 on cells (cynomolgus) (assay: flow cytometry on MK-1 cells, IgG1-TM).
T3 construct: whole, on cells; also called native CD73 on MK-1 cells (cynomolgus)

Row | Binder | Kd
14 | B11 | 0.078 nM
15 | B2 | 0.052 nM
16 | B12 | 0.063 nM
17 | B13 | 0.09 nM
18 | B14 | 0.258 nM
19 | B15 | 0.105 nM
20 | B16 | 0.16 nM
21 | B17 | 0.074 nM

The binders below were run against T4, cynomolgus CD73 extracellular domain (ECD) (cynomolgus) (assay: SPR (Proteon), IgG1-TM).
T4 construct: extracellular domain; also called Cynomolgus CD73 ECD; cyno CD73 (SPR Proteon)

Row | Binder | Kd
22 | B2 | 0.015 nM
23 | B12 | 0.009 nM
24 | B13 | 0.008 nM
25 | B4 | 1.92 nM
26 | B16 | 0.012 nM
